Data published in article PMC11099176.

How the values were obtained:
[1] = molecular target: SPP1 tails carrying gp16.1 and lacking gp17 (bacteriophage SPP1) (UniProt O48449)
[2] = molecular target: SPP1 tails lacking gp16.1 and gp17 (bacteriophage SPP1) (UniProt O48449)

B1: gp17 of bacteriophage SPP1, purified (natural protein)
chain: MTWKLASRALQKATVENLESYQPLMEMVNQVTESPGKDDPYPYVVIGDQSSTPFETKSSFGENITMDFHVWGGTTRAEAQDISSRVLEALTYKPLMFEGFTFVAKKLVLAQVITDTDGVTKHGIIKVRFTINNN
- infectious particles formed in vitro in SPP1gp17− extract (tails with endogenous gp16.1) against 0.003–20 µM purified gp17; gp17 concentration at the plateau [1]: 6 µM
- infectious particles formed in vitro in SPP1gp16.1−-gp17− extract with 20 µM purified gp16.1 added, against purified gp17; gp17 concentration at the plateau [2]: 0.2 µM
